Experiments:
[1] = biological target: SF370 bacterial surface (Streptococcus pyogenes strain SF370 (emm1 serotype)); assay: binding to SF370 bacteria, fitted binding curve; unit printed nM-1; ±261; non-specific control IgG (Fc binding)
[2] = biological target: T1, M1 protein on the surface of Streptococcus pyogenes strain SF370 (Streptococcus pyogenes strain SF370 …); assay: binding to SF370 bacteria, fitted binding curve; unit printed nM-1; ±2.9; F(ab')2
T1 chain: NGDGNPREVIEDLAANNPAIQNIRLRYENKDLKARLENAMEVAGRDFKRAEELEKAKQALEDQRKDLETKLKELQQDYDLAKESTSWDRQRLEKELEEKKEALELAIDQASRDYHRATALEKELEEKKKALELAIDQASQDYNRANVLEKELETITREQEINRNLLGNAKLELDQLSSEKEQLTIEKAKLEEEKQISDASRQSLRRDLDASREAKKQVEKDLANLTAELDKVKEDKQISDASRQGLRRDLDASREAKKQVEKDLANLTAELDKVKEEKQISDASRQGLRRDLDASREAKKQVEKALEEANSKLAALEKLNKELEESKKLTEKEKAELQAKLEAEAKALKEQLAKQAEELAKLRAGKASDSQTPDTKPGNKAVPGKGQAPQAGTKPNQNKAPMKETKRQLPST

[3] = biological target: T1, M1 protein on the surface of …; assay: binding to SF370 bacteria, fitted binding curve; unit printed nM-1; ±30.3; Fab
[4] = biological target: T1, M1 protein on the surface of …; assay: binding to SF370 bacteria, fitted binding curve; unit printed nM-1; ±1.2; F(ab')2
[5] = biological target: T1, M1 protein on the surface of …; assay: as above

Q: Which Kd [1] does the source give for Xolair IgG here?
A: 3170 nM

B1: Ab32 F(ab')2 fragments (IdeS-cleaved Ab32) (antibody, V domains shown)
VH: EVQLVESGGGLVRPGGSLRLSCVASGFMFNEYYMSWIRQAPGKGLEWISFISNAGTYTNYAESVKGRFTISRDNAKDSLYLEMNSLRGEDTAVYYCARQGFDTRGEDAFEIWGQGTMVTVSS
VL: EIVLTQSPATLSLSPGERATLSCRASQPLSGYLAWYQQKPGQAPRLLIYNASKRATGIPARFTGSGSGTDFTLTISSLESEDFAVYYCQQRSGWPSIFTFGPGTKVDIKR
Q: How did the Kd [2] turn out when B1 was run?
A: 9.1 nM

B2: Ab49 single Fabs (IgdE-cleaved Ab49) (Fab, V domains shown)
VH: EVQLVESGGGLVQPGGSLRLSCAASGFTVSINYMSWVRQAPGKGLQWVSVIYSGGSTYYADSVKGRFTISRDNSKNTLYLQMNSLRAEDTAMYYCVRDSRFWGIFDYWGQGTLVTVSS
VL: EIVLTQSPATLSLSPGERATLSCRASQSVSSYLAWYQRKPGQAPRLLIYDASNRATGIPARFSGSGSGTDFTLTISSLEPEDFAVYYCQQRSNWPPTFGQGTKVEIKR
Q: How did the Kd [3] turn out when B2 was run?
A: 208 nM

B3: Ab49 F(ab')2 fragments (IdeS-cleaved Ab49) (antibody, V domains shown)
VH: EVQLVESGGGLVQPGGSLRLSCAASGFTVSINYMSWVRQAPGKGLQWVSVIYSGGSTYYADSVKGRFTISRDNSKNTLYLQMNSLRAEDTAMYYCVRDSRFWGIFDYWGQGTLVTVSS
VL: EIVLTQSPATLSLSPGERATLSCRASQSVSSYLAWYQRKPGQAPRLLIYDASNRATGIPARFSGSGSGTDFTLTISSLEPEDFAVYYCQQRSNWPPTFGQGTKVEIKR
Q: How did the Kd [4] turn out when B3 was run?
A: 12.3 nM

Q: And the Kd [5]?
A: 12.3 nM

From patent US20240010712A1 (published 2024)
